Reference: paper PMC3961693

Molecular target: IL-6 (human) (UniProt P05231)
Details: 32 nt; six 2'-O-methyl; eight Bn-dU; one Pe-dU; one Nap-dU (position 12); Bn-dU at 7, 8, 14, 15, 22, 23, 27, 30 named in text; binding assay method and buffer not given in the …

Chain of IL-6 (human) (P05231 30-212): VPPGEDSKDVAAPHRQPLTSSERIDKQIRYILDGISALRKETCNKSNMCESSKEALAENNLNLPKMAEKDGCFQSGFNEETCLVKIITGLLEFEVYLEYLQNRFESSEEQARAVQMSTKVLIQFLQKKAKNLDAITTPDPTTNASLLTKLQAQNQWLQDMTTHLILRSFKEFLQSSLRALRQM

Q: Which Kd does the source give for “GGCAGGUUUGGUAUUAACACGUUAAGUCGUGG [SL1025]” here?
A: 0.2 nM
